Measured values: a protein production outcome set (Wang et al. 2014)

Experiment: label from the status in PepcDB records

Sequence | protein production
MIMKISMAMCKQPLPPSPTLDFPPARFGPNMLTLNPYGPKDKVVVIMGATGTGKSRLSVDIATRFRAEIINSDKIQVHQGLDIVTNKITSEESCGVPHHLLGVLPPEADLTAANYCHMANLSIESVLNRGKLPIIVGGSNSYVEALVDDKENKFRSRYDCCFLWVDVALPVLHGFVSERVDKMVESGMVEEVREFFDFSNSDYSRGIKKAIGFPEFDRFFRNEQFLNVEDREELLSKVLEEIKRNTFELACRQREKIERLRKVKKWSIQRVDATPVFTKRRSKMDANVAWERLVAGPSTDTVSRFLLDIASRRPLVEASTAVAAAMERELSRCLVA | failed
MHSAALLQKVDELPRLPKAIAELLDVVNNEDSTVKAVSEKLSHDPVLSARVLRLANSARFGCSREVGTIDDAVVRLGMQTLRTLVIASAVVGAVPKVEGFDLADFWGNTFEVAIICQELAKRLGTLPEEAFTCGILHSIGELLIVNGDPAVAATISAAVADGADRNLMEKELLGYDNAEIGALLAQSWKFTPHLVKGIQFQNHPKSAEPYSKLAGMLAMAKQIAADWDKIPDDERTSWLAQINILAGIKVDLGGLAEKLAKMHGQGMEMGKQLA | not failed
MVLARAPEPHGGGNRLNSATMRVYLGKTHKHPHQNRRHTVSDISDYIVSHFKRSSREIGEVERRILELSHQKKLVSSDINAEFSAGASLGDRLADNIAKVGGSWGFILSFCFFLIFWAIINTIVLTTRAFDPYPFIFLNLLLSMLAAIQAPIIMMSQNRQAARDRFEAAKDYEVNLKAELEVLSLHEKIDVKVLAELAALRQDIAAIHHHVTRKDD | failed
MVFSMHDKGETQENPADMSGRLNTPISTVFHFFSSLFHDALRSVAQWSAWKKIAVSVVIVAIISVTFLVDVPPISVYRDWANNAGDAFVLVFCAFYILITQFPIPRTVLTLASGVLFGPVLGSVVALGSTTVSAVISLLIVRGLLGDWMAPRLTHPAVSRINTRLEQRGWLAITSLRMIAAIPFSILNYVAALTSVPVFSFAIATLIGSAPGTIVTVVLGDAVTGSGNWTAVAFTVFLAILGVLGIFLDQKMPVKPGK | failed
MAMAVSGAVLSGLGSSFLTGGKRGATALASGVGTGAQRVGRKTLIVAAAAAQPKKSWIPAVKGGGNFLDPEWLDGSLPGDFGFDPLGLGKDPAFLKWYREAELIHGRWAMAAVLGIFVGQAWSGVAWFEAGAQPDAIAPFSFGSLLGTQLLLMGWVESKRWVDFFNPDSQSVEWATPWSKTAENFANYTGDQGYPGGRFFDPLGLAGKNRDGVYEPDFEKLERLKLAEIKHSRLAMVAMLIFYFEAGQGKTPLGALGL | failed
QDSDSTAAVAVLKRAVELDAESRYQQALVCYQEGIDMLLQVLKGTKESSKRCVLRTKISGYMDRAENIKKYLDQEKEDGK | not failed
MNMKATALTATTVAIASLLPSMGETNVQTANAEQLSNVKTGYVKVDQVALHTKDNANSSSIDTIRFNTKVNILETTNGWYKVSVNNKVGYVQKDSILLKNKLQSNNQYIVNANALNVRSEPNLESSILDVLPNGKFVTIQEEQGEWYKISHNGKAGYVQKAFVSNGSQPLVKGITVQNNTKYTVATPKLNVRSNASTSSALLGSLQNGTQLQVVETVGTWYKIRFGTGYGYVAKHYVVQNQTQSQTQTAQPTSIPAVFKFPTQGRISSTFDMRWEQMHYGIDIAAPGNVSIQAAAAGKVVKSYYSASYGNVVFIAHQINGKLYTTVYAHMKDRTVQAGDQVQAGQLVGHMGNTGHSYGQHLHFELHNGEWNFEKTNAVNPLPYLVRLEHHHHHH | failed
MPQAPTLQSFIAGRWFGQHPAQSLRSAIDGHEVARTHEEAPDFAEALAFGRHQGGKALLALDFQQRAQRLKALALYLSGRKEQLYALSHHSGATRADSWIDIEGGNSTLFSYAGLGARELPSGNLLHEGPAQSLSKLGSFAGSHILVPRGGVAVHINAFNFPIWGMLEKFAPCFLAGMPCIVKPASATSYLTEAAMRLMHESGLLPEGSLQLVIGATGDLLDRLQGQDLVTFTGSASTAGRLRANPNLIRHSVPFNAEADSLNCAILAPDVSPDDEEFELFIKEVAREMTVKAGQKCTAIRRAIIPAKQLDAVATRLRERLSKVVVGDPAVEGVRMGALASHEQQRDVAERLQSLLHSSDLLFGARDGFEPRGTNVSQGAFFAPTLLLARDPMAEGGAHDIEAFGPVSTLMAYDDLDQALELASRGKGSLVASLVTKSPAIAAQVIPRAAAWHGRLLVLDRECAGESTGHGSPLPQLKHGGPGRAGGGEELGGLRAVKHYLQRAAIQGSPSMLAAVTGEYVRGAKVLETEVHPFRRYFQDLRIGESLLTHRRTVTEADLVNFGCLSGDHFYMHFDEIAARESQFGKRIAHGYFVLSAAAGLFVSPGPGPVLANYGLDTLRFITPVGIGDTLQARLTCKRKIDQGKLSPQGTPQGVVAWDVEVSNQLGEVVASYDILTLVAKRTE | failed
MNTKIITILFIAFLSVLFFTGCIEEKISSQEHGSTKGISSSNDENTENRTVTDSLGRQVQVPLMVERVADTWMGHNEVLAMLGADDRLVATMFSPQSRPWMYKVCPTFNDAVTLSPTYDIEELLATKPDVVFMSKSDKNLEKISNLGIPAVQVSFTDFDSMKKCISDTANVLGDEEALERAQQYNTYLDSKLESVRNTSSQIPDENRPKVLHVVSLSPLCVDGGGNIISDWIEAAGGVNAAEEVKGGIMQEVSMEQILKWNPDVIILSVNAKSREKEQIMNSDQWKKVKAIQDNRVFLNPEGAFIWSRAGAEEALQIQWAAKTINPDKFQFIDINNETKWFYKTFFEYELTDEEVQKILNAEAPN | failed
GKLFEPYEHMVIDIPSEYQGNVTQLMAARKGQMLSMDNISDEWVRMEYKVPARGLISFRTMFMTETRGTGIANSYSEGLDEWAGEIKGRATGSLVADRSGQITAYALQQLADRGNFFVEPGTE | failed
SYRSTQQITDFTKEILVNGEAVTAFDRQGDLPNVVVTPNFEAGVDQVVDQLAMNDSERDTTAIIGKSLAECEALTKALKARGEQVTLIQTENQRLAPGVIVVPSFLAKGLEFDAVIVWNANQENYQREDERQLLYTICSRAMHELTLVAVGSLSPLLARVNHALYTLNEAK | not failed
MKVLTDLQKRIFAIVKKENGKPIPPGIVVRMMENQAGFPGKQQVYRAIDDLLEWHIFRKSGGATNQLLINYELADPVLDQKFQGILNLGNKNTGFVRPLDDDKTVYYIHFSNLAGALDGDLVEFCPLDKPQVGDKFDAAVLKIVKRSRVLYAGNFLIEYSDFGQEFRIVADNPRFYLTPIVNKASVPAELESNTKVAFQIDEYDPANNLCKVSIQQILGNNDEPLINLKAIMLDHSIVFEDNDVVEQQAAKLQFDEKEQSKPYRKDLTELAFVTIDPATSKDLDDAIYVKRTDKGFVLYVAIADVAYYVQRNSELDIEARHKTSSIYLPGYYVVPMLPERLSNELCSLNPNEKRYVVVCELNFDHEARLNFSEVYPATIVSQRRFAYSEVNDWLEDSDALKDESATVLESLKAGFTLSELIAEQRKKKGTIDLSHSETEVVVDQNYYPIEIRFLTHGKAETMIENLMVVANEAVAWTLTNHKVHLPYRVHPRPSKKKLQMLLENIVELKITQPNFVLDTVTSTQIAAWLKENKDNPSYDIFVILLLRTLGKAFYIVNPLIHFSIGSHHYTHFTSPIRRYADLTVHRLLWMNLFTPERFTDTEREQLNAELEQICETINDTEIKINGCERTANDYLTTLYLSKQVGQTFHGFISAITSFGIFMRMDENNFDGLIKITSIPEDFFVFEKDRMVLRGKRTNKVFRIGDRLTAKLTEIDTVQKRAILTLV | failed
MPKIHELSETLTNQIAAGEVIERPASVVKELVENSLDAGATRIRVDFVDAGLKQIVVQDNGTGIARDQVDLAFTRHATSKISNEHDLFKVATLGFRGEALASISAVSHVEILTATKGAIGVKATFSGGNKKGQEDAAAREGTQITVRDLFFNTPARLKYLRSPRTEIMKIVDIINRLALGYPSVSFTLSNTGKVLLRTPGNGNLKQTVANVYGRHIAEKMEEFEAKDNDFKISGLMSKPELTRSTRNFVSILLNGRYIRNFQLNTAIMDGYGAKLAARHYPIIVLAIQVDPLLVDVNVHPTKQEVRLSKEKELSRLITSTISNVFIKKTEQTSAFANLENKRETLVDQLQFNLNQNVVNTARKKTPEIHENNEKPEFLAKPKKPEEEKTDYVDLNIPREDDKYIITKTWDKNVLLQQDLRPFSNTLCDSEVISSGDETLANNLPQLSYIGQIDTYIIAENNSDLFLIDQVAARRRLQFEKIYEMLLSKKIVQQGLLTPIVLEFGNLDFIQIKDKIDQIKQIGIYLEDFGQNSFIVRSYPTWIHNDVEETIRQILDGYLNLDKGKSENLFKRVAAMQAKRDISGKINLAAAEASQILIDLRKTEDPYHDADGRLVLVRMSENELKKMFKRDK | failed
MPKSCSASNCTNRYNNKNPEITFHRFPFSKPSVLKQWLDNIGRDDFQPRKHMVICSLHFTPDCFSGLGNRKNLLWNAVPTLFAVPTQDANQNNFRKRLKRALQSASEKWDGITPDGLPLFTEEMHEDTQDCNNNEVADCQSTKVFAAADHTYALSDACTTKARLFNILDANRWLRKRLQAKCRVIKRMKLKLKDAQRELLTLRQQIRHRHVNH | failed
DFLDVQKETPRIRIAIDRVGVKNIKFPLKIHDDFAFLTLNLFVDVPADRKGADMSRAVESIQKVINAGSYGERIGDIGIAICDEALSRFNYSEKAQCEVNIQYYRRSGERYLEYRMYVETAKDRKQIMKNEIGISYVTMTACPCAMETTRALISMDNPDISDAISAIPTITHNQRNVTKLTVDNRSKMITVWDLADVMERVQGKPLDSLLKRVEEGRLVYSAHRNPKFVEDVVREIAYEAARVLGVPDEATIKVSSESDESIHPHNAYAEIDT | failed
MRLNYPSKVSEEGFQVMVLSLSILKKSFNDFLSTRMLLINLGPILLSLAFFGAVFYYNGGNIVGYCQTLLPQSLNDYSHSQGFFAGVFAWVFKALVYFLIFWIVILLSLVINIFASIFYTPLVVSYLHQKYYPHVVLEEFGSILFSIKYFLKSLAFMLLFLAVLTPFYFIPFIGVFGVFFSIVPHFLFFKNTMSLDIASMIFNHQSYQNLLKQHRLKHYRFSFFCYLFSLIPFFNFFATLLQTLMLTHYFFIFKEKEC | not failed
MKISIITAVYNDPRVERCLDSVASQQGNFEVEHIVVDSESTDDTVDVIEQYENHIDCLISEPDDGMYDAINKGIEAATGDVIGLLNADDYYQDQRVLHDVASQLAETGADACYGDLVYVDADDDVVRYWKSDEYSRYKLYYGWMPPHPTFFVRHEIYERHGGFDLSYEISADYELMIRLLLNTDISVTYLDRVLVRMELGGMSNQSIENMLTVIEDMYRGWKKHNRLGRFVAPFLHPVEKVPQFIRSPPGEKEGTLEHHHHHH | failed
MGVFLDKSIKDVVDGLNVRYFLPDIQREYVWLKKADEKKIEQLFDSILRGYPIGSFLFWKLQKEDIAKSDEQDSDKLNFQLYQFITNYDVRKPHNEKIRIEQINRDDLYIVANSV | failed
MIDMFPMEKGEEQETYELIVRVFHKYVAPVYSENGVARFLGMLSPEGLSEMNNGKNSFVIVARDQSKIIGMISVINDSHIALFFVSPRYQGKGIGKNILDEAIKNCLNRNPELSAVTVSSSPNSKSFYEEAGFEVIGLEHHHHHH | not failed
MSDFNLVGVIRVMPTDPDVNLDELEEKLKKVIPEKYGLAKVEREPIAFGLVALKFYVLGRDEEGYSFDEVAEKFEEVENVESAEVETVSRI | not failed
ESKYIEYKKSRKGLSNDIWSTYSAFANTEGGTIYLGIEEKKIEDKKVFVSVGVEDPEKMIEDFWNALYGRSKVSQNILSNKDVKIVNIENKACIEIHVPEAPYSKKPIYVDNKKDLVYKRVDDADRIATEEEYKFMIVNSQDDIDTELLDNYDMSDLNHESIENYRKLLLKNTNDERYANMSQLDLMIDLGAYRKDRSSKDKQYKMTTACLLFFGKYNAISDRFPGFQLDYFKKTNYLDTDWKDRISSGDLGNEDLNVYSFFEKVLIKLTDNIEESFSLNDGLTRQNYARDLKVAIREALVNTLMHAYYDTKQSIKIVNCEDFIEFYNPGNMRINKEDFIHGGHSKDRNSILSTLFRRVGYSEKAGSGGPRIFDVVNRHKLKTPEIELTDMDTNVVLWKQDLMKEFEKYPELDKKVIKYIIDYGSISKGEALKMENMTEYQFRNILKKLKDDNLIKKEGEGPATKYVL | failed
